Nine molecules from US20080267971A1 (published 2008) can be followed below.

Numbering of substitutions follows the chain as printed.

The chains are these.
T1: mouse Angiopoietin-2 (mouse, UniProt O35608 19-496)
T1 construct: Used as conditioned medium of transfectants; also called mAng-2; mouse Ang-2
T1 sequence: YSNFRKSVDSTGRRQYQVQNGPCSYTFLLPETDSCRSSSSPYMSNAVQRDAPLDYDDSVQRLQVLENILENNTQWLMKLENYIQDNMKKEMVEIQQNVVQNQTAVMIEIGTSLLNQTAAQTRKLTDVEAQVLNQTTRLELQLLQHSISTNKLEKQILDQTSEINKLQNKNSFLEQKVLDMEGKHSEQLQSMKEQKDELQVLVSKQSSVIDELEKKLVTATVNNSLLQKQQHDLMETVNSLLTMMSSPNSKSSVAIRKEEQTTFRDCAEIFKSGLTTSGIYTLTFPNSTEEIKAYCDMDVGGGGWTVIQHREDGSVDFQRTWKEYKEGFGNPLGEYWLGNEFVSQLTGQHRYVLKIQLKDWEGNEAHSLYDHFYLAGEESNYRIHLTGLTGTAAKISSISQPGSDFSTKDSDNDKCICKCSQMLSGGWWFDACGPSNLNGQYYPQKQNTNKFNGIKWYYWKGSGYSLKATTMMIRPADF

T2: Mouse/Human Ang-2 StuI chimeric molecule (mouse; human, UniProt O35608 19-496)
T2 construct: also called M/H Stul 310-496
T2 chain: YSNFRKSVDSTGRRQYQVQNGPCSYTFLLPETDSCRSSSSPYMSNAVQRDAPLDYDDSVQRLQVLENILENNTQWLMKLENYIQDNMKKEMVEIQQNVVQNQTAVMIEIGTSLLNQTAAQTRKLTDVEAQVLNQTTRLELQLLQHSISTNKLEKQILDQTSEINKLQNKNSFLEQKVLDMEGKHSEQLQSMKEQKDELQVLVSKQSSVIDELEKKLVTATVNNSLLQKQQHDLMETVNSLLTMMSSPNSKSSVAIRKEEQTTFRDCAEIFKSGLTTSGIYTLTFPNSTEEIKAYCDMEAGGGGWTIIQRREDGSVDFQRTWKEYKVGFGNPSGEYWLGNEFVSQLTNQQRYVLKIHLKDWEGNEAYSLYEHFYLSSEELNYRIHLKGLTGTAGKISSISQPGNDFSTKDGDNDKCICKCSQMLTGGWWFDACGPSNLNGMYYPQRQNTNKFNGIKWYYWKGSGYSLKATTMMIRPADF

T3: human Ang-2 V345M (human, UniProt O15123 19-496)
T3 sequence: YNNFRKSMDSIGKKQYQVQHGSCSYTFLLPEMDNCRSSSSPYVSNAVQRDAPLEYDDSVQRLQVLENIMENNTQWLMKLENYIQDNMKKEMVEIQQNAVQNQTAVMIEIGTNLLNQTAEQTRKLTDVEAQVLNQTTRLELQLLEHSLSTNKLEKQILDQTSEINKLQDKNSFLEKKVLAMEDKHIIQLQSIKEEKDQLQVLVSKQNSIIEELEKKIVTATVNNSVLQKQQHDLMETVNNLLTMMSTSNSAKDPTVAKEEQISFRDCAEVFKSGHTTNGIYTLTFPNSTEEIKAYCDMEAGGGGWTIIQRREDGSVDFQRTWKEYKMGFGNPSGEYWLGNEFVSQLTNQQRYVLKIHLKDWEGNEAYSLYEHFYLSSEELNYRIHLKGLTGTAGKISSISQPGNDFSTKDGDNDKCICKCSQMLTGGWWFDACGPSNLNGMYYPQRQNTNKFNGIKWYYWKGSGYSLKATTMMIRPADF

T4: Mouse/Human chimeric Ang-2 with the human StuI-TfiI fragment (mouse/human chimera, UniProt O35608 19-496)
T4 construct: also called Stu-Tfil 310-400
T4 chain: T2 chain with K386T, G393A, N403S, G410S, T424S, M440Q, R445K

T5: human Angiopoietin-2 (human, UniProt O15123 19-496)
T5 construct: Mostly bought recombinant protein (R&D Systems 623-AM/CF, 623-AN; biotinylated BT623) or supernatant of transfected 293F cells; also called Ang-2; rhAng-2
T5 sequence: T3 sequence with M326V

B1: mAb 5.83.1 (antibody, V domains shown)
VH: not shown
VL: EIVMTQSPATLSVSPGERATLSCRASQSLISNLAWYQQKPGQAPRLLIFGASTRATGIPARFSGSGSGTEFTLTISSLQSEDFAVYYCHQYNNWWTFGQGTKVEIKR
notes: Human hybridoma IgG (XenoMouse); also called x5.83
B2: mAb 5.108.1 (antibody, V domains shown)
VH: QVQLVESGGGVVQPGRSLRLSCAASGFTFSSYGMHWVRQAPGKGLEWVAVIWYDGSNKYYADSVKGRFTISRDNSKNTLYLQMNSLRAEDTAMYYCARELALWGQGTLVTVSS
VL: B1 VL with L29V, I30S, N32Y, F49Y, S52F, S63R, T69P, H89Q, N92S, N93H
notes: Human hybridoma IgG (XenoMouse); also called x5.108
B3: mAb 5.39.1 (antibody, V domains shown)
VH: QVQLVQSGAEVTKPGASVKVSCKASGYTFTAYHMYWVRQAPGQGLEWMGWINPNSGGTNYAQKFQGRVTMTRDTSISTAYMELSRLRSDDSPVYYCARDQGIAAAGPFDYWGQGTLVTVSS
VL: B1 VL with E17D, L29V, I30S, L33F, F49Y, A51S, H89Q, N92H, N93Y, I105F
notes: Human hybridoma IgG (XenoMouse); also called x5.39
B4: mAb 5.88.3 (antibody, V domains shown)
VH: EVQMVESGGGLVQPGGSLRLSCAASGFTLRSYWMSWVRQAPGKGLEWVANIKEDGSEKYHVDSVKGRFTISRDNAENSLFLQMSSLRAEDTAVYYCARDMEASAGLFDYWGQGTLVTVSS
VL: B1 VL with T20I, L29I, I30S, F49Y, H89Q, N93Y
notes: Human hybridoma IgG (XenoMouse); also called x5.88
B5: mAb 5.13.1 (antibody, V domains shown)
VH: EVQLVESGGGLVQPGGSLRLSCAASGFTFSSYWMSWVRQAPGKGLEWVANIKQDGSEKYYVDSVKGRFTISRDNAKNSLYLQMNSLRAEDTAVYYCARDPGIAVAGPFDYWGQGTLVTVSS
VL: B1 VL with L29V, I30S, F49Y, H89Q, N93H
notes: Human hybridoma IgG (XenoMouse); also called x5.13
B6: mAb 3.3.2 (antibody, V domains shown)
VH: B5 VH with A24V, P100Q
VL: B1 VL with S28T, L29V, I30S, N32D, F49Y, T53I, Y87S, H89Q, N92Y
notes: Human hybridoma IgG (XenoMouse); also called 3.3.1; x3.3
B7: mAb 5.62.1 (antibody, V domains shown)
VH: B5 VH
VL: B1 VL with L29V, I30S, F49Y, S52F, H89Q, N93H, E104G
notes: Human hybridoma IgG (XenoMouse); also called x5.62
B8: mAb 5.54.1 (antibody, V domains shown)
VH: not shown
VL: B1 VL with V85I
notes: Human hybridoma IgG (XenoMouse); also called x5.54
B9: mAb 5.35.1 (antibody, V domains shown)
VH: EVQLVESGGGVVRPGGSLRLSCTTSGFTFDDYGMSWVRQAPGKGLEWVSGINWNGGSTVYADSVKGRFTISRDSAKNSLYLQMNSLRAEDTALYHCARNKQWLWYFDLWGRGTLVTVSS
VL: EIVMTQSPATLSVSPGERATLSCRASQSVSSNLAWYQQKPGQAPRLLIYGASTRATGIPARFSGSGSGTEFTLTISSLQSEDFAVYYCEQYNNWPLTFGGGTKVEIKR
notes: Human hybridoma IgG (XenoMouse); also called x5.35

In one assay the target is T1, mouse Angiopoietin-2. The assay is described as follows: ELISA, recombinant mouse Ang-2.
In the case of B1, the binding result is given as “no binding”.
For the molecule B2, the binding result is “no binding”.
Turning to B3, the binding result is reported as “no binding”.
On to B4, for which the binding result was “no binding”.
B5: the binding result is “no binding”.
On to B6, for which the binding result is “no binding”.
B7: the binding result is recorded as “no binding”.
For the molecule B8, the binding result is on record as “no binding”.
With B9, the binding result is “no binding”.

In the next assay the target is T2, Mouse/Human Ang-2 StuI chimeric molecule. The assay is described as follows: ELISA. On the technique in general: ELISA stands for enzyme-linked immunosorbent assay.
On to B1, for which the “% of binding to human Ang-2” value was 100%.
As for B2, the “% of binding to human Ang-2” value came out at 100%.
In the case of B3, the “% of binding to human Ang-2” value stood at 100%.
Same read-out and setting: for B4 the value was 100%; for B5, 100%.
Still for that read-out and setting: the result for B6 reads 100%; that for B7, 100%; that for B8, 100%.
B9: the “% of binding to human Ang-2” value amounted to 100%.

A further assay deals with T3, human Ang-2 V345M. In words: ELISA.
With B1, the “% of binding to human Ang-2” value came to 100%.
For the molecule B2, the “% of binding to human Ang-2” value worked out at 100%.
Take B3: the “% of binding to human Ang-2” value is 100%.
For the molecule B4, the “% of binding to human Ang-2” value came out at 100%.
The same measure, in the same setting: for B5 the value was 100%.
Still for that read-out and setting: the result for B6 reads 100%; that for B7, 100%.
With B8, the “% of binding to human Ang-2” value came out at 100%.
Regarding B9, the “% of binding to human Ang-2” value was 100%.

The next assay deals with T4, Mouse/Human chimeric Ang-2 with the …. The assay is described as follows: ELISA.
Take B1: the “% of binding to human Ang-2” value came out at 86%.
Regarding B2, the “% of binding to human Ang-2” value was found to be 36%.
With B3, the “% of binding to human Ang-2” value was determined as 25%.
As for B4, the “% of binding to human Ang-2” value is 20%.
As to B5, the “% of binding to human Ang-2” value was found to be 27%.
B6: the “% of binding to human Ang-2” value worked out at 15%.
As to B7, the “% of binding to human Ang-2” value is 30%.
Consider B8, for which the “% of binding to human Ang-2” value was 77%.
On the same count and under the same terms, the result for B9 reads 100%.

The next assay concerns the target T5, human Angiopoietin-2. In words: Biacore, mAb captured. As for the experimental part: (§1) The label-free surface plasmon resonance (SPR), or Biacore, was utilized to measure the antibody affinity to the antigen. For this purpose, a high-density goat anti-human antibody surface over a CM5 Biacore chip was prepared using routine amine coupling. All the purified mAbs were diluted to approximately 8 μg/ml in HBS-P running buffer containing 100 μg/ml BSA and 10 mg/mL carboxymethyldextran. Each mAb was captured on a separate surface using a 42-second contact time, and a 5-minute wash for stabilization of the mAb baseline.
(§2) Data were fit globally to a 1:1 interaction model to determine the binding kinetics.
(Surface plasmon resonance follows binding to a sensor surface in real time, without labels.)
In general, Kd refers to the free concentration of one partner at which half of the binding sites on the other are occupied at equilibrium, for simple one-to-one binding. Higher therefore signals a looser complex. What is called kon is the rate constant with which the complex forms. Turning to B1, the Kd was at most 0.147 nM and the on-rate (kon) worked out at 68000 M⁻¹ s⁻¹.
In the same order, the values of B2 are at most 0.031 nM and 320000 M⁻¹ s⁻¹.
For B3, the Kd is at most 0.043 nM and the on-rate constant (kon) came to 230000 M⁻¹ s⁻¹.
In the case of B4, the equilibrium dissociation constant (Kd) was at most 0.037 nM and the association rate constant (kon) amounted to 270000 M⁻¹ s⁻¹.
Consider B5, for which the dissociation constant Kd was at most 0.047 nM and the kon worked out at 210000 M⁻¹ s⁻¹.
In the case of B6, the Kd was at most 0.033 nM and the association rate constant (kon) was found to be 300000 M⁻¹ s⁻¹.
In the case of B7, the equilibrium dissociation constant (Kd) is at most 0.065 nM and the kon stood at 150000 M⁻¹ s⁻¹.
With B8, the Kd is at most 0.066 nM and the on-rate constant (kon) was 150000 M⁻¹ s⁻¹.
In the same order, the values of B9 are at most 0.029 nM and 340000 M⁻¹ s⁻¹.

The next assay addresses T5, human Angiopoietin-2. In words: Biacore; kd held constant (*). As for the experimental part:
as §1, §2
By koff is commonly meant the rate constant with which the complex falls apart. B1: the dissociation rate constant (koff) was at most 1e-05 s⁻¹.
In turn, B2 registered an off-rate constant (koff) of at most 1e-05 s⁻¹.
In turn, B3 gave a koff of at most 1e-05 s⁻¹.
B4 had a koff of at most 1e-05 s⁻¹.
Consider B5, for which the off-rate constant (koff) is at most 1e-05 s⁻¹.
B6: the koff was at most 1e-05 s⁻¹.
The same measure, in the same setting: the result for B7 reads at most 1e-05 s⁻¹.
The molecule B8 registered a dissociation rate constant (koff) of at most 1e-05 s⁻¹.
B9 yielded an off-rate (koff) of at most 1e-05 s⁻¹.
